{
  "source": "patent US20200171068A1",
  "about": "“COMPOSITIONS COMPRISING APTAMERS AND NUCLEIC ACID PAYLOADS AND METHODS OF USING THE SAME” (Children's National Medical Center, priority 2017, published 2020)",
  "key": {"[1]": {"assay": "Plasma levels and in vivo imaging of miR-26a chimera in TUBO tumor-bearing BALB/c mice", "design": "species or system mouse", "conditions": "670 pmol single intravenous dose, qPCR", "method": "FIG. 8A is a graph showing the pharmacokinetics of plasma levels of miR-26a chimera and the single dose administration in BALB/c mice bearing mouse TUBO breast cancer cell line. miR-26a chimera (670 pmol/20 g) was injected intravenously. Blood samples were collected at the indicated time points. The concentrations of miR-26a were determined by quantitative PCR using standard curve generated with dose-titrated miR-26a chimera. Data were pooled from three experiments, involving a total of 3 mice. FIG. 8B is a series of pictures showing in vivo imaging of miR-26a chimera conjugated with AF647 dye in BALB/c mice bearing tumor with TUBO cell line. A single dose of miR-26a chimera (670 pmol/20 g) was intravenously injected and followed by serial fluorescence imaging at the indicated time points by IVIS spectrum (Caliper LifeSciences, Waltham, Mass.). Data shown are series images from one experiment. Similar data were obtained from another experiment."}, "[2]": {"system": "TUBO cells", "assay": "Binding to TUBO cells by flow cytometry", "design": "species or system mouse", "conditions": "biotinylated", "method": "DNA sequences for anti-human KIT aptamer (21) and mouse c-Kit aptamers (22) conjugated with biotin at 3′ were functionalized by short denaturation-renaturation step (95° C. 10 min, 5 min snap-cooling on ice). These DNA sequences were 5′-[…] […]-3′ (SEQ ID NO: 2) for human KIT, 5′-[…]-3′ (SEQ ID NO:3) for mouse c-Kit. These activated aptamers were used for binding assay to the cell lines by flow cytometry. For chimera preparation, human KIT-aptamer or mouse c-Kit-aptamer miR-26a chimera was assembled by three compartments of DNA/RNA hybrid sequences. The sequences were 5′-[…] […]/C3 (SEQ ID NO:4) spacer/CCUAUUCUGG-3′(SEQ ID NO:5) for human KIT aptamer+the part of passenger sequence for miR-26a-5p, 5′-[…]/C3 (SEQ ID NO:6) spacer/CCUAUUCUGG-3′ (SEQ ID NO:7) for mouse cKit aptamer+the part of passenger sequence for miR-26a-5p, 5′-GUUACUUGCACG/TEG (triethylene glycol)-Cholesterol-3′ (SEQ ID NO:8) for the part of sequence for miR-26a-5p+cholesterol, and 5′-[…]-3′ (SEQ ID NO:9) for guide sequence for miR-26a-5p (RNA sequences were represented as italic). The guide sequence for scramble control was […] (SEQ ID NO:10). To protect the oligonucleotide sequences from nuclease degradation, phosphorothioate bonds were introduced between the last 3 nucleotides at the 5′-end of DNA aptamers. The RNA sequences were modified with 2′-fluoro-uridines. […]"}, "[3]": {"system": "TUBO-derived tumors", "assay": "Syngeneic TUBO breast tumor model in BALB/c mice", "assay_type": "in vivo, mouse"}},
  "data": [
    {"molecule": "miR-26a chimera: mouse c-Kit DNA aptamer-C3-passenger RNA, passenger RNA-TEG-cholesterol and miR-26a-5p guide strand annealed (SEQ ID NO:6/7, 8, 9) (nucleic acid, chemistry not fully specified) chain 1: GCTCAACGCGGGACGGCTCTCCCATTGAC chain 2: CCUAUUCUGG chain 3: GUUACUUGCACG guide: UUCAAGUAAUCCAGGAUAGGCU", "values": [
      {"measurement": "time miR-26a chimera could be detected in the blood after injection", "setting": "[1]", "result": "≤ 8", "unit": "h"},
      {"measurement": "binding to TUBO cells", "setting": "[2]", "result": "nearly identical levels comparable to an anti-c-Kit antibody"},
      {"measurement": "Bak expression among c-Kit+ tumor cells", "setting": "[3]; 670 pmol/20 g, 3 days", "result": "not significantly elevated"},
      {"measurement": "Ezh2 expression among c-Kit+ tumor cells", "setting": "[3]; 670 pmol/20 g, 3 days", "result": "specific decrease"},
      {"measurement": "miR-26a among c-Kit+ tumor cells", "setting": "[3]; 3 days after injection, qPCR", "result": "significant increase"},
      {"measurement": "miR-26a levels in c-Kit+ BM cells", "setting": "[3]; day 3 after single treatment, qPCR", "result": "selective increase"},
      {"measurement": "Bak1 expression in c-Kit+ HSPC", "setting": "[3]; mice that received no 5-FU-treatment", "result": "not significantly down-regulated"}
    ]}
  ]
}
